# ± gives the uncertainty stated by the source.
# Test: self-splicing fitness, log relative to wild type (ln ratio); higher = more splicing; Tetrahymena group I intron in knt gene, E. coli kanamycin selection, DiMSum; sequences stand for … in CUCUCU…GGAGGGAAAAGUUAUCAGGCAUGCACCUGGUAGCUAGUCUUUAAACCAAUAGAUUGCAUCGGUUUAAAAGGCAAGACCGUCAAAUUGCGGGAAAGGGGUCAACAGCCGUUCAGUACCAAGUCUCAGGGGAAACUUUGAGAUGGCCUUGCAAAGGGUAUGGUAAUAAGCUGACGGACAUGGUCCUAACCACGCAGCCAAGUCCUAAGUCAACAGAUCUUCUGUUGAUAUGGAUGCAGUUCACAGACUAAAUGUCGGUCGGGGAAGAUGUAUUCUUCUCAUAAGAUAUAGUCGGACCUCUCCUUAAUGGGAGCUAGCGGAUGAAGUGAUGCAACACUGGAGCCGCUGGGAACUAAUUUGUAUGCGAAAGUAUAUUGAUUAGUUUUGGAGUACUCGUGGUCG
# How it was run: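 Pooled colonies went to amplicon sequencing on an Illumina HiSeq 2500 after six replicate transformations. The plates were LB agar with 100 μg/mL carbenicillin, 50 μM IPTG and 0.2% rhamnose, with or without 25 μg/mL kanamycin, incubated overnight at 37°C or 30°C. The E. coli BL21(DE3) library had all eight P1ex-region intron nucleotides randomised, the intron placed in the knt kanamycin-resistance gene on pET-22b(+). DiMSum fitness is the error-weighted combination of replicate fold changes, kanamycin against none, normalised to wild type.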
Sequence,self-splicing fitness (ln) (30 °C),self-splicing fitness (ln) (37 °C)
AACCAGCAAUAUUACGGCAU,0.127 ± 0.053,0.376 ± 0.067
CGGUAGCAAUAUUACGCUCG,,-2.91 ± 0.43
CCAGAGCAAUAUUACGCAGC,-3.64 ± 0.28,-1.77 ± 0.24
GUUAAGCAAUAUUACGCAGU,-1.74 ± 0.24,-2.55 ± 0.23
AGUCAGCAAUAUUACGCCUU,-0.221 ± 0.11,0.301 ± 0.13
UAAUAGCAAUAUUACGCGGU,-3 ± 0.31,-2.29 ± 0.35
GACAAGCAAUAUUACGGUGA,-1.3 ± 0.065,-0.86 ± 0.086
CACAAGCAAUAUUACGGACC,-3.41 ± 0.24,-1.73 ± 0.2
GUGAAGCAAUAUUACGACCC,-1.04 ± 0.43,0.469 ± 0.33
AGGUAGCAAUAUUACGAUAG,-3.728 ± 0.035,-2.72 ± 0.045
CGGUAGCAAUAUUACGUGAA,-2.67 ± 0.18,-1.52 ± 0.19
CCUUAGCAAUAUUACGUUUU,-4.8 ± 0.31,-2.85 ± 0.28
ACUGAGCAAUAUUACGUCGC,-3.35 ± 0.26,-2.18 ± 0.21
CGCCAGCAAUAUUACGGAAA,-1.48 ± 0.17,-1.93 ± 0.17
CCAAAGCAAUAUUACGGAUA,-2.87 ± 0.22,-2.17 ± 0.31
GGGUAGCAAUAUUACGUAAA,-0.962 ± 0.13,-0.0364 ± 0.15
GGAGAGCAAUAUUACGGGAC,-2.46 ± 0.23,-0.231 ± 0.32
AUGUAGCAAUAUUACGUGGU,,-1.53 ± 0.17
CACCAGCAAUAUUACGCGAU,-2.55 ± 0.14,-2.61 ± 0.21
CAUUAGCAAUAUUACGUCAC,,-1.63 ± 0.44
GCUCAGCAAUAUUACGACGC,-0.319 ± 0.12,-0.102 ± 0.19
UUUAAGCAAUAUUACGGUGA,-1.11 ± 0.11,-0.554 ± 0.12
GUCAAGCAAUAUUACGGCGC,-0.751 ± 0.11,-0.437 ± 0.14
GUCGAGCAAUAUUACGAUUC,-1.64 ± 0.24,-0.941 ± 0.26
UUGCAGCAAUAUUACGGAUA,-1.92 ± 0.15,-1.12 ± 0.17
AGCUAGCAAUAUUACGUCAA,-4.05 ± 0.41,-2 ± 0.16
GGCUAGCAAUAUUACGGGUC,-2.91 ± 0.28,-2.26 ± 0.24
UUAGAGCAAUAUUACGUCAC,,-2.76 ± 0.48

Sequence,self-splicing fitness (ln) (30 °C),self-splicing fitness (ln) (37 °C)
CACCAGCAAUAUUACGCCCU,-4.12 ± 0.26,-0.642 ± 0.11
AUCCAGCAAUAUUACGAGCA,-1.14 ± 0.14,-1.1 ± 0.11
CUUCAGCAAUAUUACGUAAA,-3.05 ± 0.15,-2.12 ± 0.19
GUUGAGCAAUAUUACGGGCU,-2.65 ± 0.26,-2.23 ± 0.49
ACCGAGCAAUAUUACGACAU,-2.219 ± 0.015,-1.3 ± 0.033
AUUGAGCAAUAUUACGACUU,-1.5 ± 0.12,-0.31 ± 0.13
CUCAAGCAAUAUUACGAGGG,,-2.8 ± 0.43
CGUGAGCAAUAUUACGGCUG,-0.246 ± 0.073,0.0364 ± 0.094
AUGAAGCAAUAUUACGGAAC,-0.855 ± 0.098,-1.24 ± 0.15
UGGAAGCAAUAUUACGAAGG,-2.12 ± 0.14,-0.449 ± 0.18
AACAAGCAAUAUUACGGGCC,-2.99 ± 0.25,0.104 ± 0.19
UUGGAGCAAUAUUACGUUUA,-2.44 ± 0.44,
UGCGAGCAAUAUUACGUGAU,-2.47 ± 0.23,-2.09 ± 0.4
AAUAAGCAAUAUUACGUUAU,-2.45 ± 0.13,-1.58 ± 0.16
UGUAAGCAAUAUUACGGUGU,-3.61 ± 0.22,-0.0793 ± 0.17
CGUGAGCAAUAUUACGCAUG,-0.06 ± 0.18,-1.13 ± 0.27
ACACAGCAAUAUUACGCACU,-0.282 ± 0.045,0.182 ± 0.058
GGAAAGCAAUAUUACGUUGU,-4.15 ± 0.23,-2.19 ± 0.15
GCCAAGCAAUAUUACGGGGU,-4.5 ± 0.18,-2.55 ± 0.14
AUAGAGCAAUAUUACGCACU,-0.797 ± 0.14,0.815 ± 0.14
UAUGAGCAAUAUUACGAAGG,-3.5 ± 0.2,-1.4 ± 0.22
UACCAGCAAUAUUACGGCUG,-3.63 ± 0.14,-2 ± 0.15
CCCCAGCAAUAUUACGAAUC,-3.68 ± 0.16,-2.49 ± 0.22
CAGUAGCAAUAUUACGCACG,-1.27 ± 0.11,-0.303 ± 0.17
AGUUAGCAAUAUUACGUUUG,-3.13 ± 0.24,-1.8 ± 0.29
GAGGAGCAAUAUUACGAGCU,,-1.77 ± 0.47
CUAGAGCAAUAUUACGUGUU,-3.3 ± 0.26,-2.8 ± 0.3

# Reference: the supplement of paper PMC7877785
